From US20260167721A1 (ABLEXIS, published 2026)

B1: CD3 × CD33-BspAb71 (bispecific antibody)
chain 1: EVQLVESGGGLVKPGGSLRLSCAASGFTFSSYSMNWVRQAPGKCLEWVSSISRSSSYIYYADSVKGRFTLSRDNAKNSLYLQMNSLRGEDTAIYYCGRDGKGAIFLDYWGQGTLVTVSSGGGGSGGGGSGGGGSGGGGSSYELTQPPSVSVSPGQTARITCSGDALPKKYAYWYQQKSGQAPVLVIYEDSKRPSGIPERFSGSSSGTMATLTISGAQVEDEADYYCYSTHSSGNHRVFGCGTKLTVLDKTHTCPPCPAPEFEGGPSVFLFPPKPKDTLMISRTPEVTCVVVDVSHEDPEVKFNWYVDGVEVHNAKTKPREEQYNSTYRVVSVLTVLHQDWLNGKEYKCKVSNKALPASIEKTISKAKGQPREPQVYTLPPCREEMTKNQVSLWCLVKGFYPSDIAVEWESNGQPENNYKTTPPVLDSDGSFFLYSKLTVDKSRWQQGNVFSCSVMHEALHNHYTQKSLSLSPGK
chain 2: EVQLVQSGAEVKKPGSSVKVSCKASGYTITDSNIHWVRQAPGQSLEWIGYIYPYNGGTDYNQKFKNRATLTVDNPTNTAYMELSSLRSEDTAFYYCVNGNPWLAYWGQGTLVTVSSASTKGPSVFPLAPSSKSTSGGTAALGCLVKDYFPEPVTVSWNSGALTSGVHTFPAVLQSSGLYSLSSVVTVPSSSLGTQTYICNVNHKPSNTKVDKRVEPKSCDKTHTCPPCPAPEFEGGPSVFLFPPKPKDTLMISRTPEVTCVVVDVSHEDPEVKFNWYVDGVEVHNAKTKPREEQYNSTYRVVSVLTVLHQDWLNGKEYKCKVSNKALPASIEKTISKAKGQPREPQVCTLPPSREEMTKNQVSLSCAVKGFYPSDIAVEWESNGQPENNYKTTPPVLDSDGSFFLVSKLTVDKSRWQQGNVFSCSVMHEALHNRFTQKSLSLSPGK
chain 3: DIQLTQSPSTLSASVGDRVTITCRASESLDNYGIRFLTWFQQKPGKAPKLLMYAASNQGSGVPSRFSGSGSGTEFTLTISSLQPDDFATYYCQQTKEVPWSFGQGTKVEVKRTVAAPSVFIFPPSDEQLKSGTASVVCLLNNFYPREAKVQWKVDNALQSGNSQESVTEQDSKDSTYSLSSTLTLSKADYEKHKVYACEVTHQGLSSPVTKSFNRGEC
B2: CD3 × CD33-BspAb116 (bispecific antibody)
chain 1: NFMLTQPHSVSESPGKTVTISCTRSSGSIASNYVQWYQQRPGSSPTTVIYEDNQRPSGVPDRFSGSIDSSSNSASLTISGLKTEDEAYYYCQSFDSSNRVFGCGTKLTVLGGGGSGGGGSGGGGSGGGGSQVQLQESGPGLVKPSQTLSLTCTVSGGSISSGGYYWSWIRQHPGKCLEWIGYIYYSGSTYYNPSLKSRVTISVDTSKDQFSLKLSSVTAADTAVYYCARERKTSLPFDIWGQGTMVTVSSDKTHTCPPCPAPEFEGGPSVFLFPPKPKDTLMISRTPEVTCVVVDVSHEDPEVKFNWYVDGVEVHNAKTKPREEQYNSTYRVVSVLTVLHQDWLNGKEYKCKVSNKALPASIEKTISKAKGQPREPQVYTLPPCREEMTKNQVSLWCLVKGFYPSDIAVEWESNGQPENNYKTTPPVLDSDGSFFLYSKLTVDKSRWQQGNVFSCSVMHEALHNHYTQKSLSLSPGK
chain 2: B1 chain 2
chain 3: B1 chain 3
B3: CD3 × CD33-BspAb37 (bispecific antibody)
chain 1: not shown
chain 2: B1 chain 2
chain 3: B1 chain 3
B4: CD3 × CD33-BspAb38 (bispecific antibody)
chain 1: not shown
chain 2: B1 chain 2
chain 3: B1 chain 3
B5: CD3 × CD33-BspAb45 (bispecific antibody)
chain 1: EVQLVESGGGLVQPGGSLRLSCAASGFTFSRYSMNWVRQAPGKCLEWVSYISSSSSSIYYADSVKGRFTISRDNAKNSLYLQMNSLRDEDTAVYYCARDRRATLDYWGQGTLVTVSSGGGGSGGGGSGGGGSGGGGSNFMLTQPHSVSESPGKTVTISCTRSSGSIASNYVQWYQQRPGSSPTTVIYEDNQRPSGVPDRFSGSIDSSSNSASLTISGLKTEDEADYYCQSYDSSNHVFGCGTKLTVLDKTHTCPPCPAPEFEGGPSVFLFPPKPKDTLMISRTPEVTCVVVDVSHEDPEVKFNWYVDGVEVHNAKTKPREEQYNSTYRVVSVLTVLHQDWLNGKEYKCKVSNKALPASIEKTISKAKGQPREPQVYTLPPCREEMTKNQVSLWCLVKGFYPSDIAVEWESNGQPENNYKTTPPVLDSDGSFFLYSKLTVDKSRWQQGNVFSCSVMHEALHNHYTQKSLSLSPGK
chain 2: B1 chain 2
chain 3: B1 chain 3
B6: CD3 × CD33-BspAb51 (bispecific antibody)
chain 1: not shown
chain 2: B1 chain 2
chain 3: B1 chain 3
B7: CD3 × CD33-BspAb52 (bispecific antibody)
chain 1: not shown
chain 2: B1 chain 2
chain 3: B1 chain 3
B8: CD3 × CD33-BspAb66 (bispecific antibody, human IgG1, kappa)
chain: EVQLVESGGGLVQPGRSLRLSCAASGFTFDDYAMHWVRQAPGKGLEWVSGISWNSGSIGYADSVKGRFTISRDNAKNSLYLQMNSLRAEDTALYYCAKDSRGYGDYRLGGAYWGQGTLVTVSSGGGGSGGGGSGGGGSGGGGSEIVMTQSPATLSVSPGERATLSCRASQSVSSNLAWYQQKPGQAPRLLIYGASTRATGIPARFSGSGSGTEFTLTISSLQSEDFAVYYCQQYNNWPWTFGQGTKVEIKTSGPGGPDKTHTCPPCPAPEFEGGPSVFLFPPKPKDTLMISRTPEVTCVVVDVSHEDPEVKFNWYVDGVEVHNAKTKPREEQYNSTYRVVSVLTVLHQDWLNGKEYKCKVSNKALPASIEKTISKAKGQPREPQVYTLPPCREEMTKNQVSLWCLVKGFYPSDIAVEWESNGQPENNYKTTPPVLDSDGSFFLYSKLTVDKSRWQQGNVFSCSVMHEALHNHYTQKSLSLSPGK
heavy: B1 chain 2
light: B1 chain 3

Each binder was assayed against T1, CD3 on human donor PBMC / Pan T effector cells (human, UniProt P07766 23-207; P09693 23-182; P04234 22-171; P20963 22-164) (assay: cell-based or functional assay).
T1 sequence (P07766 23-207, chain 1 of 4): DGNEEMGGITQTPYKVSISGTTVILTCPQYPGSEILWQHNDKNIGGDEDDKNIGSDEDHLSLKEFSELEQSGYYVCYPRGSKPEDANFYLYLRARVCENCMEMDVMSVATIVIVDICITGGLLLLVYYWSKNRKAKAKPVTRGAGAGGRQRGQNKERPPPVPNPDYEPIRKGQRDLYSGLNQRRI
T1 sequence (P09693 23-182, chain 2 of 4): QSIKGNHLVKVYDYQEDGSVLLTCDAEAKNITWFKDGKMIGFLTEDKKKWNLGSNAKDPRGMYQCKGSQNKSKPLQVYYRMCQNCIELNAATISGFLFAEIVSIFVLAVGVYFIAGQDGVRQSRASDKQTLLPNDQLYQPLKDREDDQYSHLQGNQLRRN
T1 sequence (P04234 22-171, chain 3 of 4): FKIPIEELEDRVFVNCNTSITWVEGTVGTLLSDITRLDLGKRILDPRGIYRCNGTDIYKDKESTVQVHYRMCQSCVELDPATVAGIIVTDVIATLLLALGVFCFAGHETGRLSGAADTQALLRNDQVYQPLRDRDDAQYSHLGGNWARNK
T1 sequence (P20963 22-164, chain 4 of 4): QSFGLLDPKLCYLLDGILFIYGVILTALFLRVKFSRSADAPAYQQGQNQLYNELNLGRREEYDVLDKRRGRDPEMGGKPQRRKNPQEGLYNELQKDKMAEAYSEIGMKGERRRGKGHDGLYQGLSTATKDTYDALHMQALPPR

Binder	Cytokine Release Assay (TNFα) Donor 0 gMFI max [gMFI]	Cytokine Release Assay (TNFα) Donor 1 gMFI max [gMFI]	Cytokine Release Assay (TNFα) Donor 2 EC50 [pM]	Cytokine Release Assay (TNFα) Donor 2 gMFI max [gMFI]	Cytokine Release Assay (TNFα) Donor 3 gMFI max [gMFI]	Cytokine Release Assay (TNFα) Donor 0 EC50 [pM]	Cytokine Release Assay (TNFα) Donor 3 EC50 [pM]	Cytokine Release Assay (TNFα) Donor 1 EC50 [pM]
B1	44100	5470	396	16700	28200	–	–	–
B2	18000	4930	155	9080	13600	610	685	–
B3	48300	5610	83.2	15800	31600	164	222	–
B4	28500	4840	4030	10100	17900	6010	5950	–
B5	71300	4850	33.4	12100	31800	91.9	21.6	–
B6	51700	6200	180	14800	36200	203	166	535
B7	5510	4510	1350	4800	5310	–	18600	–
B8	55800	5360	28100	14000	28600	20100	10800	–

Molecular target: T1, CD3 on human donor PBMC / Pan T …
Assay: cell-based or functional assay
Remark: another data set of the same source

Binder	Cytokine Release Assay (IL2) Donor 0 EC50 [pM]	Cytokine Release Assay (IL2) Donor 0 gMFI max [gMFI]	Cytokine Release Assay (IL2) Donor 1 gMFI max [gMFI]	Cytokine Release Assay (IL2) Donor 2 EC50 [pM]	Cytokine Release Assay (IL2) Donor 2 gMFI max [gMFI]	Cytokine Release Assay (IL2) Donor 3 EC50 [pM]	Cytokine Release Assay (IL2) Donor 3 gMFI max [gMFI]	Cytokine Release Assay (IL2) Donor 1 EC50 [pM]
B1	3030	65500	24400	72.5	30900	2160	127000	–
B2	450	23200	19000	90.9	16800	198	27200	384
B3	180	69200	26800	141	34800	181	104000	437
B4	6630	39300	16200	1730	19200	1840	45900	2870
B5	53.9	50900	22200	20.4	26200	20.5	67900	86.9
B6	181	105000	37800	205	27300	99.5	156000	529
B7	141000	17200	14500	–	12800	3860	18100	10700
B8	44900	84700	31100	38700	33700	49800	95000	40100
